Results taken from US12295987B2, “Method of using a GIP/GLP1 co-agonist for diabetes” (Eli Lilly and Company, priority 2018, dated 2025).
Numbered stars: 1 amine (or outer) side, 2 acyl side, 3 side chain; on linkers, the order of the positions; unused ones are H or OH. Square brackets hold non-standard residues; d marks the D form. Side chains are listed from the residue outwards. Ends that are not written are not given here. * marks the point of attachment. C20 diacid = O=C(O)CCCCCCCCCCCCCCCCCCC(=O)*; γGlu = O=C(O)[C@H](CCC(=O)[*:2])N[*:1]; AEEA = NCCOCCOCC(=O)O; Aib = CC(C)(N)C(=O)O

Target: T1, human gastric inhibitory peptide receptor (hGIPR) (Homo sapiens, UniProt P48546)
T1 construct: expressed in transfected cells; host or cells: HEK293
T1 sequence (P48546 22-466): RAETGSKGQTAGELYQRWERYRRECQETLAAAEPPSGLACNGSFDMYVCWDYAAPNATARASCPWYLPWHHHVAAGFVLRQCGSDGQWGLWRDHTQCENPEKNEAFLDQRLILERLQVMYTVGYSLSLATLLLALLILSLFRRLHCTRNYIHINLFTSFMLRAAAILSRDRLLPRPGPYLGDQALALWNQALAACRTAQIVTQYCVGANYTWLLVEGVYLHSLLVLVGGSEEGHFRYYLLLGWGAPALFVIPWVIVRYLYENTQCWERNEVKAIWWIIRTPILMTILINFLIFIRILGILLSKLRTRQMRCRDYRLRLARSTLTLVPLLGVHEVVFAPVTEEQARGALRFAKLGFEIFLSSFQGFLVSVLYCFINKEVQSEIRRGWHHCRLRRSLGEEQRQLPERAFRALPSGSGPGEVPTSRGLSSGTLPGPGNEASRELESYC
Assay: cAMP pharmacological functional assay in presence of 0.1% casein, hGIPR
Format: cell-based
Conditions: ratio of hGIPR to hGLP1R cAMP EC50 ratios

| Substance | [hGIPR/hGLP1R] EC50 Ratio |
| --- | --- |
| Y-Aib-EGT-αMeF-TSDYSI-Aib-LDEK((2-[2-(2-Amino-ethoxy)-ethoxy]-acetyl)2-(γGlu)-CO—(CH2)18—CO2H)AQ-Aib-EFI-(D-Glu)-YLIEGGPSSGAPPPS-NH2 (YXEGTXTSDYSIXLDEKAQXEFIXYLIEGGPSSGAPPPS; Aib, αMeF, D-Glu; lipidated K; amide; (2)..(2) Xaa at position 2 is Aib; (6)..(6) Xaa at position 6 is alpha-methyl-Phe; (13)..(13) Xaa at position 13 is Aib; MOD_RES (17)..(17) Lys at position 17 is chemically modified by conjugation of the epsilon-amino group of the Lys side chain with (2-[2-(2-amino-ethoxy)-ethoxy]-acetyl)2-(gamma-Glu)-CO-(CH2)18- CO2H; (20)..(20) Xaa at position 20 is Aib; (24)..(24) Xaa at position 24 is D-Glu; M) [Peptide 225] | 3.80 |
| Y-Aib-EGT-αMeF(2F)-TSD-4Pal-SI-αMeL-LD-Orn-K((2-[2-(2-Amino-ethoxy)-ethoxy]-acetyl)2-(γGlu)-CO—(CH2)16—CO2H)AQ-Aib-EFI-(D-Glu)-αMeY-LIEGGPSSGAPPPS-NH2 (YXEGTXTSDXSIXLDXKAQXEFIXXLIEGGPSSGAPPPS; Aib, 4Pal, Orn, αMe residues, lipidated Lys, D-Glu, amide; (2)..(2) Xaa at position 2 is Aib; (6)..(6) Xaa at position 6 is alpha-MeF(2F); (10)..(10) Xaa at position 10 is 4Pal; (13)..(13) Xaa at position 13 is alpha-MeL; (16)..(16) Xaa at position 16 is Orn; MOD_RES (17)..(17) K at position 17 is chemically modified by conjugation of the epsilon-amino group of the K side chain with (2-[2-(2-amino-ethoxy)-ethoxy]-acetyl)2-(gamma-Glu)-CO-(CH2)16- CO2H; (20) [Peptide 4] | 4.22 |
| Y-Aib-EGTFTSDYSI-αMeL-LDKK((2-[2-(2-Amino-ethoxy)-ethoxy]-acetyl)2-(γGlu)-CO—(CH2)18—CO2H)AQ-Aib-AFIEYLIEGG-NH2 (YXEGTFTSDYSIXLDKKAQXAFIEYLIEGG; Aib, αMeL; K lipidated C20 diacid-γGlu-AEEA2; C-terminal amide; (2)..(2) Xaa at position 2 is Aib; (13)..(13) Xaa at position 13 is alpha-methyl-Leu; MOD_RES (17)..(17) Lys at position 17 is chemically modified by conjugation of the epsilon-amino group of the Lys side chain with (2-[2-(2-amino-ethoxy)-ethoxy]-acetyl)2-(gamma-Glu)-CO-(CH2)18- CO2H; (20)..(20) Xaa at position 20 is Aib; MOD_RES (30)..(30) Gly at position 30 is amidated) [Peptide 62] | 5.03 |
| Y-Aib-EGT-αMeF-TSDYSI-αMeL-LDKK((2-[2-(2-Amino-ethoxy)-ethoxy]-acetyl)2-(γGlu)-CO—(CH2)18—CO2H)AQ-Aib-EFIEYLIEGGPSSG-NH2 (YXEGTXTSDYSIXLDKKAQXEFIEYLIEGGPSSG; Aib, αMe residues, C20 diacid lipidation, C-amide; (2)..(2) Xaa at position 2 is Aib; (6)..(6) Xaa at position 6 is alpha-methyl-Phe; (13)..(13) Xaa at position 13 is alpha-methyl-Leu; MOD_RES (17)..(17) Lys at position 17 is chemically modified by conjugation of the epsilon-amino group of the Lys side chain with (2-[2-(2-amino-ethoxy)-ethoxy]-acetyl)2-(gamma-Glu)-CO-(CH2)18- CO2H; (20)..(20) Xaa at position 20 is Aib; MOD_RES (34)..(34) Gly at po) [Peptide 123] | 2.56 |
| Y-Aib-EGT-αMeF(2F)-TSDYSI-αMeL-LDEK((2-[2-(2-Amino-ethoxy)-ethoxy]-acetyl)2-(γGlu)-CO—(CH2)16—CO2H)AQ-Aib-EFI-(D-Glu)-YLIEGG-NH2 (YXEGTXTSDYSIXLDEKAQXEFIXYLIEGG; Aib, αMe, D-Glu, C18 diacid lipidation, C-amide; (2)..(2) Xaa at position 2 is Aib; (6)..(6) Xaa at position 6 is alpha-methyl-Phe(2F); (13)..(13) Xaa at position 13 is alpha-methyl-Leu; MOD_RES (17)..(17) Lys at position 17 is chemically modified by conjugation of the epsilon-amino group of the Lys side chain with (2-[2-(2-amino-ethoxy)-ethoxy]-acetyl)2-(gamma-Glu)-CO-(CH2)16- CO2H; (20)..(20) Xaa at position 20 is Aib; (24)..(24) Xaa at positi) [Peptide 220] | 4.63 |
| Y-Aib-EGTFTSDYSILLDKIAQ-Aib-AFIEYLIK((2-[2-(2-Amino-ethoxy)-ethoxy]-acetyl)2-(γGlu)-CO—(CH2)18—CO2H)GGPSSGAPPPS-NH2 (Y[Aib]EGTFTSDYSILLDKIAQ[Aib]AFIEYLIK([AEEA-AEEA-γGlu-C20 diacid])GGPSSGAPPPS-NH2; N-terminus assumed; SMILES CC[C@H](C)[C@H](NC(=O)[C@H](CCCCN)NC(=O)[C@H](CC(=O)O)NC(=O)[C@H](CC(C)C)NC(=O)[C@H](CC(C)C)NC(=O)[C@@H](NC(=O)[C@H](CO)NC(=O)[C@H](Cc1ccc(O)cc1)NC(=O)[C@H](CC(=O)O)NC(=O)[C@H](CO)NC(=O)[C@@H](NC(=O)[C@H](Cc1ccccc1)NC(=O)[C@@H](NC(=O)CNC(=O)[C@H](CCC(=O)O)NC(=O)C(C)(C)NC(=O)[C@@H](N)Cc1ccc(O)cc1)[C@@H](C)O)[C@@H](C)O)[C@@H](C)CC)C(=O)N[C@@H](C)C(=O)N[C@@H](CCC(N)=O)C(=O)NC(C)(C)C(=O)N[C@@H](C)C(=O)N[C@@H](Cc1ccccc1)C(=O)N[C@H](C(=O)N[C@@H](CCC(=O)O)C(=O)N[C@@H](Cc1ccc(O)cc1)C(=O)N[C@@H](CC(C)C)C(=O)N[C@H](C(=O)N[C@@H](CCCCNC(=O)COCCOCCNC(=O)COCCOCCNC(=O)CC[C@H](NC(=O)CCCCCCCCCCCCCCCCCCC(=O)O)C(=O)O)C(=O)NCC(=O)NCC(=O)N1CCC[C@H]1C(=O)N[C@@H](CO)C(=O)N[C@@H](CO)C(=O)NCC(=O)N[C@@H](C)C(=O)N1CCC[C@H]1C(=O)N1CCC[C@H]1C(=O)N1CCC[C@H]1C(=O)N[C@@H](CO)C(N)=O)[C@@H](C)CC)[C@@H](C)CC) [Peptide 37] | 9.98 |
